# T1: GST fusion containing the C-terminal 19 amino acids of DLC1/PIN
# T1 chain: KHFIYFYLGQVAILLFKSG
# B1: GST-Pak1 fusion protein, wild-type (amino acids 1-545) (protein)
# chain: MSNNGLDIQDKPPAPPMRNTSTMIGVGSKDAGTLNHGSKPLPPNPEEKKKKDRFYRSILPGDKTNKKKEKERPEISLPSDFEHTIHVGFDAVTGEFTGMPEQWARLLQTSNITKSEQKKNPQAVLDVLEFYNSKKTSNSQKYMSFTDKSAEDYNSSNALNVKAVSETPAVPPVSEDEDDDDDDATPPPVIAPRPEHTKSVYTRSVIEPLPVTPTRDVATSPISPTENNTTPPDALTRNTEKQKKKPKMSDEEILEKLRSIVSVGDPKKKYTRFEKIGQGASGTVYTAMDVATGQEVAIKQMNLQQQPKKELIINEILVMRENKNPNIVNYLDSYLVGDELWVVMEYLAGGSLTDVVTETCMDEGQIAAVCRECLQALEFLHSNQVIHRDIKSDNILLGMDGSVKLTDFGFCAQITPEQSKRSTMVGTPYWMAPEVVTRKAYGPKVDIWSLGIMAIEMIEGEPPYLNENPLRALYLIATNGTPELQNPEKLSAIFRDFLNRCLDMDVEKRGSAKELLQHQFLKIAKPLSSLTPLIAAAKEATKNNH
# Columns and labels:
# [1] = target: T1, GST fusion containing the C-terminal 19 …
# [2] = target: GST-DLC1/PIN fusion protein (wild type)
# [3] = target: GST-DLC1/PIN with deletion of Ser88
protein,measurement,setting,value
B1,in vitro kinase assay with DLC1/PIN deletions,[1],GST fusion containing the C-terminal 19 amino acids of DLC1/PIN was efficiently phosphorylated by Pak1
same,in vitro kinase assay (phosphorylation of GST-DLC1/PIN by purified Pak1 enzyme),[2],The Pak1 enzyme efficiently phosphorylated DLC1/PIN
same,in vitro kinase assay with DLC1/PIN deletions,[3],Deletion of Ser88 of DLC1/PIN completely abolished the ability of the Pak1 to phosphorylate DLC1/PIN

# Reference: patent US20040208880
